Laboratory results from patent publication US20180022819A1 (APTEVO RESEARCH AND DEVELOPMENT, published 2018).

Target: prostate-specific membrane antigen (PSMA) (human, UniProt Q04609 1-750)
Assay: cell-based or functional assay

prostate-specific membrane antigen (PSMA), sequence (Q04609 whole entry): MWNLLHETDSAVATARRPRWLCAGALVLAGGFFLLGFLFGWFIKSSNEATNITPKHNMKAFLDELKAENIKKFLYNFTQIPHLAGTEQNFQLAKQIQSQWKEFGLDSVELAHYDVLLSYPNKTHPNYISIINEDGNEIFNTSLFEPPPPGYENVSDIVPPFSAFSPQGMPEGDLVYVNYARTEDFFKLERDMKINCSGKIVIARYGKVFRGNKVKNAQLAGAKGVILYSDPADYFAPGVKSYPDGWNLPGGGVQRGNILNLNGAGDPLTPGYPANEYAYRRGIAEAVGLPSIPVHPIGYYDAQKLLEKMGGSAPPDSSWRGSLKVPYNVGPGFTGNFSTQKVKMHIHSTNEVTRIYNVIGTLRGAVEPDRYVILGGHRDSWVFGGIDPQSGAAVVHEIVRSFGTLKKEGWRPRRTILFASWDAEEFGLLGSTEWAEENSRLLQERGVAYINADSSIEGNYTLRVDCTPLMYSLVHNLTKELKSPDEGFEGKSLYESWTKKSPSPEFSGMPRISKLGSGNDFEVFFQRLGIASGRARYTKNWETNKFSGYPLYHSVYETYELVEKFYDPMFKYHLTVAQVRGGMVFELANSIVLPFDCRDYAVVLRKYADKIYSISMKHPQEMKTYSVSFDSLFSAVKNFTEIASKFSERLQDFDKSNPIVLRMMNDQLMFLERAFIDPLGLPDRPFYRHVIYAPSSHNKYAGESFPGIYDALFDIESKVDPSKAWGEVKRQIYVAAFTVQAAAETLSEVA

EC50 of % live cells, GFP-LNCaP growth inhibition assay, 4 days with primary human T-cells (3:1): 15 pM
EC50 of % specific lysis, 51Cr release assay, 4 hours, untreated 22Rv1 target cells with donor T-cells (5:1): 0.8 pM
B1: humanized TSC249 (huVL-VH#2 107-1A4 scFv-Fc-DRA222 scFv) (bispecific antibody)
chain: DIQMTQSPSAMSASVGDRVTITCRASKSISKYLAWFQQKPGKVPKLRIHSGSTLQSGVPSRFSGSGSGTEFTLTISSLQPEDFATYYCQQHIEYPWTFGQGTKVEIKRGGGGSGGGGSGGGGSQVQLVQSGAEVKKPGASVKVSCKASGYTFTDYYMHWVRQAPGQGLEWMGYFNPYNDYTRYAQKFQGRVTMTRDTSISTAYMELSSLRSDDTAVYYCARSDGYYDAMDYWGQGTTVTVSSSEPKSSDKTHTCPPCPAPEAAGAPSVFLFPPKPKDTLMISRTPEVTCVVVDVSHEDPEVKFNWYVDGVEVHNAKTKPREEQYNSTYRVVSVLTVLHQDWLNGKAYACAVSNKALPAPIEKTISKAKGQPREPQVYTLPPSRDELTKNQVSLTCLVKGFYPSDIAVEWESNGQPENNYKTTPPVLDSDGSFFLYSKLTVDKSRWQQGNVFSCSVMHEALHNHYTQKSLSLSPGQRHNNSSLNTGTQMAGHSPNSQVQLVESGGGVVQPGRSLRLSCKASGYTFTRSTMHWVRQAPGQGLEWIGYINPSSAYTNYNQKFKDRFTISADKSKSTAFLQMDSLRPEDTGVYFCARPQVHYDYNGFPYWGQGTPVTVSSGGGGSGGGGSGGGGSAQDIQMTQSPSSLSASVGDRVTMTCSASSSVSYMNWYQQKPGKAPKRWIYDSSKLASGVPARFSGSGSGTDYTLTISSLQPEDFATYYCQQWSRNPPTFGGGTKLQITSSS
